Measured values from patent publication US8008542B2, “Compositions, cells, and plants that include BKI1, a negative regulator of BRI1-mediated BR signaling” (The Salk Institute for Biological Studies, priority 2007, dated 2011).

Assays:
Arabidopsis seedlings = test: Hypocotyl length and growth phenotype of transgenic lines; type: in vivo; details: over-expression from 35S promoter in Col-0
Method: BKI1's function in brassinosteroid signaling was explored in several ways. First, we made transgenic plants harboring a β-glucuronidase (GUS) reporter gene expressed from the promoter of BKI1 to observe the expression pattern of BKI1 (FIG. 1G-J) during development. […] To explore the function of BKI1 in BRI1 signaling, we created RNAi (RNA interference) lines to knockdown BKI1 RNA levels.
Seedlings were grown in short day photoperiods for seven days. At least ten short-day grown seedlings were measured. In FIGS. 2A-B the pBKI1::GUS line was used as a control (control). RNAi-2 and RNAi-7 were two independent RNAi knockdown lines for BKI1. In FIG. 2 C-E, phenotype of plants overexpressing BKI1-FLAG, with Col-0 (left) and a BKI1-FLAG line (right) are shown. 2C. Short-day grown seedlings. 2D. Long-day grown seedlings. 2E. Long-day grown adult plants. In FIG. 2F, leaf morphology of seedlings grown in short days. Col-0 (right) and a BKI1-FLAG line (left) are shown. In FIG. 2G, over-expression of BKI1-YFP leads to a reduced response (hypocotyl length) to BL. At least twenty short-day grown seedlings were measured. In FIG. 2H, over-expression of BKI1-YFP leads to an enhanced response to BRZ220. At least twenty dark-grown seedlings were measured. In FIG. 2I, over-expression of BKI1-YFP results in reduced accumulation of dephosphorylated BES1. […]

BAK1 = molecular target: T1, BAK1 (Arabidopsis thaliana, UniProt Q94F62); test: Yeast two-hybrid interaction with BAK1-KD; type: binding
T1 construct: kinase domains of other receptor-like kinases tested, including BAK1 and NIK1; expressed in transfected cells; host or cells: yeast strain MaV203
T1 sequence (Q94F62 289-576 limits assumed): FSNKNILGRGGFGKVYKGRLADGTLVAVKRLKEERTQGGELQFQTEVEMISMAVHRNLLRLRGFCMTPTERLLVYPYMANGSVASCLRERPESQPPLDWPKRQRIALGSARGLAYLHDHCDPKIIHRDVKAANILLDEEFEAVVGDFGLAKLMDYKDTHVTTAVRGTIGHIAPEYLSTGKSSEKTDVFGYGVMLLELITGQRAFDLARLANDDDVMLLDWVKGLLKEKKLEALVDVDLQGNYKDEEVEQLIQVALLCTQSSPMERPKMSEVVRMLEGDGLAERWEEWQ
Method: (§2) A ProQuest Two-Hybrid system with Gateway technology (Invitrogen) was used. […] The full-length (BKI1-FL), and various truncated proteins, 1-252 (BKI1-ΔCT1), 1-299 (BKI1-ΔCT2), and 253-337 (BKI1-CT) of BKI1 were cloned into the pEXPAD502 vector. The kinase domain of NIK1 (NIK1-KD) (Fontes et al. (2004) Genes Dev. 18:2545), BAK1 (BAK1-KD), CLV1 (CLV1-KD), BRL1 (BRL1-KD), BRL3 (BRL3-KD), full length TTL, and full-length BIN2 were cloned into the pDBLeu vector. Interactions were tested on SD medium minus Leu, Trp, and His, and containing 25 mM 3-Amino-1,2,4-Triazole (3AT), using the yeast strain MaV203 according to the manufacturer's manual.

NIK1 = molecular target: T2, NIK1 (Arabidopsis thaliana, UniProt Q9LFS4); test: Yeast two-hybrid interaction with NIK1-KD; type: binding
T2 construct: The kinase domain of NIK1 (NIK1-KD) (Fontes et al. (2004) Genes Dev. 18:2545); expressed in transfected cells; host or cells: yeast strain MaV203
Method: as §2

CLV1 = molecular target: T3, CLV1 (Arabidopsis thaliana, UniProt Q9SYQ8); test: Yeast two-hybrid interaction with CLV1-KD; type: binding
T3 construct: expressed in transfected cells; host or cells: yeast strain MaV203
T3 sequence (Q9SYQ8 692-968 limits assumed): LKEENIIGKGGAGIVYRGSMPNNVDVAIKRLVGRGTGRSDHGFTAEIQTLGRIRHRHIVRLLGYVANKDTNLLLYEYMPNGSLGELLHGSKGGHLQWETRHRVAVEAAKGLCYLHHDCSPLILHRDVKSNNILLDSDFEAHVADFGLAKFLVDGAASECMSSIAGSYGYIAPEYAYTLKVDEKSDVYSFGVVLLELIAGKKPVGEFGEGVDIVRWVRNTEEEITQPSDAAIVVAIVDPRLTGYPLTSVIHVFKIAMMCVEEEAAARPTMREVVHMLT
Method: (§1) BKI1 fused with GAL4-AD (BKI1-pEXAD502) interacts with the intracellular domain of BRI1 (BRI1-KD), but not CLV1 (CLV1-KD), BRL1 (BRL1-KD), and BRL3 (BRL3-KD), fused with GAL4-DB (in pDBLeu) in yeast. pDBLeu was used as a negative control. Each spot from left to right contains 10 μl yeast cell culture with OD600=0.2, 0.04, 0.008, and 0.0016.

BRL3 = molecular target: T4, BRL3 (Arabidopsis thaliana, UniProt Q9LJF3); test: Yeast two-hybrid interaction with BRL3-KD; type: binding
T4 construct: expressed in transfected cells; host or cells: yeast strain MaV203
T4 sequence (Q9LJF3 858-1136 limits assumed): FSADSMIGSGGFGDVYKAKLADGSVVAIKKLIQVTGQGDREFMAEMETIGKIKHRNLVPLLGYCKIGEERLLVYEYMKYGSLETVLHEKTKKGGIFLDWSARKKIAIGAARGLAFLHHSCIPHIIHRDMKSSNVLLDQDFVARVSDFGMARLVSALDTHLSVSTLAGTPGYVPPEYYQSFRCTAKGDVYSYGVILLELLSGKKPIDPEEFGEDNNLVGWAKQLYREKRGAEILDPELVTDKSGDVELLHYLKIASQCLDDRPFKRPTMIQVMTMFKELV
Method: as §1

[1] = molecular target: kinase-inactive BRI1 (mBRI1-KD) (Arabidopsis thaliana, UniProt O22476, K911E); details: yeast two-hybrid, ONPG liquid culture assay
Chain of kinase-inactive BRI1 (mBRI1-KD) (O22476 828-1196 K911E): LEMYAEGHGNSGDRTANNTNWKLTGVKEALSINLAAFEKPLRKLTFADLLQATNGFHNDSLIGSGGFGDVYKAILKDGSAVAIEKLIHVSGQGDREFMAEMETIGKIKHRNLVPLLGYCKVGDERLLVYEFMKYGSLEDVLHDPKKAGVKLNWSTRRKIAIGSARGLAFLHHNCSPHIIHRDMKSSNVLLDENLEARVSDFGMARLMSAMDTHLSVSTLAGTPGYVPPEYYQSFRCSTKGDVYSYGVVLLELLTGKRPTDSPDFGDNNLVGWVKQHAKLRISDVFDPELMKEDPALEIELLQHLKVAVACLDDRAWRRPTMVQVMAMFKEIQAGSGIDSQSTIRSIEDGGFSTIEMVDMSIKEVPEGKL
Method: as §2

T2 sequence (Q9LFS4 312-593 limits assumed): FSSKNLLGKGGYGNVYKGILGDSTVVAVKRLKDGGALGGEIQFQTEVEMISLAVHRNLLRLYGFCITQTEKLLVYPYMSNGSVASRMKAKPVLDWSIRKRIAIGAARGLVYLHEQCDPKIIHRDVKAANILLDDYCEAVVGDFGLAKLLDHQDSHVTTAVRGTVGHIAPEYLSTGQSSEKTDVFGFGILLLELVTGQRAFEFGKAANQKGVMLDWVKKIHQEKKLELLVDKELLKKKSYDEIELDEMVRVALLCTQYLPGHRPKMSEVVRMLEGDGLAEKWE

B1: BKI1: BRI1-interacting protein of 337 amino acids, negative regulator of brassinosteroid signaling (SEQ ID NO:1) (protein, listed as Arabidopsis thaliana)
chain: METNLQQVKNSSQTFSEKQNPKQEASPSPISSTCSSPSHDFSFTISLQPLSSSSKHISPTLRSPSKTTSSYQQTDPFAVDLSPADEIFFHGHLLPLHLLSHLPVSPRTSTGSYNDGFTLPVKDILPDQPTNNNNNTENAITNISTEAKDDNTEDKAEGEIRVKTKPIKSFSLFGLSKWRKGFESNEREQEQQQQKIKKPMSLDLSHAVKKYIRMLFQKRGNGTQFWNRRQTSSYSFSSSLMGPNGNSKTMINGSYNKRDLIRGRRGELFSAPASMRTSPTNSGHLRVSTAGLSSSSGSTSSSSSDSTMEELQAAIQAAIAHCKNSSAVDRDDKVKDS
- plant phenotype on over-expression (Arabidopsis seedlings): dwarf plants
- interaction with kinase domain of BAK1 in yeast (BAK1): not
- interaction with kinase domain of NIK1 in yeast (NIK1): not
- interaction with kinase domain of CLV1 in yeast (CLV1): does not interact
- interaction with kinase domain of BRL3 in yeast (BRL3): does not interact
- interaction with kinase-inactive BRI1 relative to kinase active BRI1 [1]: stronger
